Laboratory results taken from the supplement of paper PMC10567573.
± gives the standard deviation.

Assay: protein stability index of a GFP-peptide fusion (GPS, HEK-293T) (PSI 1-6); higher = more stable
[1] = treatment: DMSO, c terminus: a fixed tail appended
[2] = treatment: MLN4924 1 uM, 8 h, c terminus: a fixed tail appended
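Also: 24-mer peptide tiles fused after GFP, lentivirally expressed, FACS-sorted into six equal bins by GFP/DsRed ratio, decoded by Illumina sequencing, PSI is the read-weighted mean bin number.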

Sequence	protein stability index [1]	protein stability index [2]	protein stability index (treatment: DMSO, c terminus: native)	protein stability index (treatment: MLN4924 1 uM, 8 h, c terminus: native)
TMLATRNFSAAKSLLKKPDGVKES [CAMK2D]	4.36 ± 0.067	4.33 ± 0.51	–	–
EKEKHVNQLQTKVAVLEQEIKDKD [SASS6]	5.38 ± 0.12	5.53 ± 0.14	–	–
LLGTSGLKRRFSRLENRYEALAKQ [DAPK3]	3.04 ± 0.31	3.06 ± 0.27	–	–
GCALTTFSVLEGEKNNHRAKDLRA [SOAT1]	3.49 ± 0.52	3.83 ± 0.63	–	–
LKCDLQERLLCPSLLAGTADGSLR [M1AP]	2.55 ± 0.32	2.5 ± 0.24	–	–
PEQVQNEIKSMKKRMSELCIDFNK [NLN]	4.11 ± 0.44	4.23 ± 0.52	–	–
CTDKENALKLFPVQPCSAVHLLLK [FAM189A2]	2.58 ± 0.23	2.7 ± 0.43	–	–
SPFSPGLFHRLDEDWDSALFAELG [ATF6]	2.6 ± 0.28	2.44 ± 0.16	–	–
LMELCRLYHRADVEKVLRRWVDEE [EDARADD]	2.5 ± 0.58	2.4 ± 0.33	–	–
EARICRLLKHSNIVRLHDSISEEG [CAMK2B]	3.32 ± 0.41	3.46 ± 0.28	–	–
ARFGSGPCKTRDDEPVCGRPLGIR [APMAP]	3.75 ± 0.28	3.87 ± 0.35	–	–
ISCVICNDIMAYMFGFFFGRTPLI [CDS2]	3.31 ± 0.35	2.92 ± 0.48	–	–
RLKKQLRAAQLQHSEKMAQYLEEE [CCDC6]	4.06 ± 0.29	4.11 ± 0.26	–	–
ILVLTRPVTRNERHSYQVYRQPIP [NET1]	2.33 ± 0.51	2.11 ± 0.38	–	–
FRIFIIWAISSWFRRGPAPQDQAG [CLPTM1]	2.23 ± 0.2	1.87 ± 0.28	–	–
VTFGNKQKVLGKALSLIRFPLMTI [BTBD1]	2.4 ± 0.041	2.4 ± 0.75	–	–
LQQERQRLGQRQPPPSEPTQGPEI [DNAJC4]	5.52 ± 0.16	5.16 ± 0.081	–	–
TNRWSFDGIDRWIKEIDEHAPGVP [RAB40C]	3.91 ± 0.17	3.97 ± 0.22	–	–
EMMSQALKATFSGFTKEQQRLGIP [ETS1]	2.35 ± 0.28	2.49 ± 0.2	–	–
REVDLNGDGTVDFDEFVMMLSRH [CABP4]	–	–	4 ± 0.17	4.23 ± 0.28
QGDSSQQSLKGHLRNNFQKQLLSN [ZC2HC1C]	3.31 ± 0.27	3.88 ± 0.16	–	–
SPEWDTVTPEAKNLINQMLTINPA [CAMK2B]	3.84 ± 0.18	3.86 ± 0.21	–	–

Sequence	protein stability index [1]	protein stability index [2]	protein stability index (treatment: DMSO, c terminus: native)	protein stability index (treatment: MLN4924 1 uM, 8 h, c terminus: native)
LPTLVPWYFWGETFQNSVFVATFL [SCD]	3.15 ± 0.076	3.09 ± 0.35	–	–
QAFLDELESSDLPVALLLAQHKDR [MNAT1]	3.53 ± 0.13	3.49 ± 0.21	–	–
SQIQGHKEMSKVWNDLRPKLSCLF [SNX8]	2.2 ± 0.35	2.22 ± 0.22	–	–
LYAVGGQDGVSCLNIVERYDPKEN [KLHL20]	3.89 ± 0.31	3.96 ± 0.27	–	–
GIIPYAGIDLAVYETLKNAWLQHY [SLC25A25]	2.6 ± 0.48	2.65 ± 0.67	–	–
FVEDSFDPNINPTIGASFMTKTVQ [RAB22A]	2.97 ± 0.27	3.34 ± 0.46	–	–
VCMTFMKQIAGGDVTAKNIWLAES [INTS3]	2.53 ± 0.62	2.92 ± 0.6	–	–
PVLRFDALWQVLARDCFATGRHYW [TRIM14]	3.5 ± 0.53	3.21 ± 0.88	–	–
HQDVDLVCINLPPPLTRQIAVKTL [GFOD1]	2.47 ± 0.33	2.53 ± 0.27	–	–
EVVPIHGRGNFPTLEITLKDIVQT [TENT5C]	3.5 ± 0.31	3.39 ± 0.27	–	–
MCNVKAPLGSPSPRPRRAKRFASL [ADAMTS4]	3.69 ± 0.26	3.77 ± 0.21	–	–
VEKVLRRWVDEEWPKRERGDPSRH [EDARADD]	2.97 ± 0.43	3.28 ± 0.67	–	–
DHGVPEHPTPFLAFLRRVKTCNPP [PTPRD]	3.16 ± 0.042	3.16 ± 0.25	–	–
EEFLSAMQSARGPTPSSPLPSVPV [PLEKHN1]	4.15 ± 0.27	4.14 ± 0.19	–	–
YLATAKVLITVEDVNDNSPELTIT [PCDHGA10]	2.49 ± 0.2	2.44 ± 0.22	–	–
TDKVGTEAAFHPIEEYMVHVEEHF [FUT8]	4.07 ± 0.27	4.31 ± 0.33	–	–
CRYLNFTKGEEISVYVKLAGERED [MIA2]	2.52 ± 0.26	2.77 ± 0.22	–	–
TDSEHSDAEVSCTDNGTFNLSRGQ [RETREG3]	5.24 ± 0.22	5.28 ± 0.22	–	–
GSYGVVFKCRNKTSGQVVAVKKFV [CDKL4]	2.02 ± 0.48	2.16 ± 0.46	–	–
LEGVIDRYQQSKAAALKCQLCEKA [TRIM9]	3.45 ± 0.32	3.78 ± 0.34	–	–
RAALTYTSLEITILTSQPGKEVVK [M1AP]	2.32 ± 0.19	2.49 ± 0.34	–	–
LGPAFRGLKGRTLYPAVSAVWGQC [SPSB2]	2.17 ± 0.22	2.16 ± 0.18	–	–

Sequence	protein stability index [1]	protein stability index [2]	protein stability index (treatment: DMSO, c terminus: native)	protein stability index (treatment: MLN4924 1 uM, 8 h, c terminus: native)
DSSMILTVPGQALACGSNRFNKLG [NEK8]	3.29 ± 0.17	3.2 ± 0.22	–	–
GDKYEHHSYMGMRGFCAFLGSWLV [POMT2]	2.23 ± 0.57	1.73 ± 0.29	–	–
DNPPTFSQVSYFTYIPENNARGAS [PCDHGA10]	3.44 ± 0.46	3.49 ± 0.49	–	–
IPAGARDIQIVERKKSADVLALAD [ADAMTSL2]	4.68 ± 0.32	4.86 ± 0.38	–	–
GQLRVFGAGLLSSISELKHALSGH [TPH1]	2.24 ± 0.27	2.13 ± 0.19	–	–
VVLCFSIANPNSLNHVKSMWYPEI [RHOBTB1]	4.05 ± 0.91	3.6 ± 0.21	–	–
EWLLDAPELPEGHLEDWLEKRAKR [ZMAT5]	4.95 ± 0.52	4.79 ± 0.15	–	–
ALLITLIVVATLPIPVVFVLRHFH [SLC6A17]	2.73 ± 0.52	2.33 ± 0.45	–	–
QALMLPPGSFWGLCQVAQEALASA [VENTX]	2.04 ± 0.25	2.18 ± 0.42	–	–
DEGASAGQGPKPEADSQEQGHPQT [GAGE1]	5.71 ± 0.1	5.48 ± 0.37	–	–
SVNICGMNEHPVCSRTWTNRLCHQ [SPAG8]	2.29 ± 0.26	2.36 ± 0.14	–	–
EALVNRLWKRMDKLEAEKRILQEK [CCDC6]	2.93 ± 0.08	3.6 ± 0.24	–	–
ETILHFFVQILLALHHVHTHLILH [NEK8]	3.19 ± 0.44	3.31 ± 0.29	–	–
ENCERREAFWAEWKDLTLSTRPEE [TCAP]	4.53 ± 0.097	4.68 ± 0.2	–	–
LEAVLHCHQMGVVHRDLKPENLLL [CAMK2B]	2.22 ± 0.3	2.15 ± 0.35	–	–
QRVVYLEGCGPPLRRWLRANLAAS [TSPAN10]	2.26 ± 0.33	2.11 ± 0.24	–	–
VGGYFVDKFVATMYHYLQFAYYKL [P3H4]	3.67 ± 0.73	2.56 ± 0.048	–	–
FSDIPSPYLRGTIKMMQAVRQAFQ [GFOD1]	2.38 ± 0.2	2.17 ± 0.17	–	–
KAEELDRRERELQHAALGGTATRQ [SCAMP3]	5.15 ± 0.12	5.21 ± 0.22	–	–
LDLIFHVALPTEAEFQLVRDVVLC [TENT5C]	2.98 ± 0.27	2.68 ± 0.73	–	–
TRDLAGLRQFFKQLPSPPFLPAAG [CEBPD]	2.56 ± 0.28	2.44 ± 0.048	–	–
